Results from patent US20080311122A1 (AstraZeneca / MedImmune, published 2008).
No end group written: not given here.

T1: recombinant HMG1 purified from E. coli as a calmodulin binding protein (CBP) fusion protein (human, UniProt A9RA84 1-215 (Papio anubis entry))
T1 construct: also called rHMG1; rHMGB1
T1 sequence: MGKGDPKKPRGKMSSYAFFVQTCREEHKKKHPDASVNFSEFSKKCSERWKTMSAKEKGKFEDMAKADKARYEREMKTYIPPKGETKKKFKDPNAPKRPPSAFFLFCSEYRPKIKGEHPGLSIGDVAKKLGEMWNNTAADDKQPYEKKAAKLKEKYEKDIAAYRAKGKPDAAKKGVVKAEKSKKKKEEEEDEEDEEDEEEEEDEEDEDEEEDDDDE

T2: HMG1 B Box peptide amino acids 91-169
T2 construct: also called HMG1 peptide 91-169
T2 peptide: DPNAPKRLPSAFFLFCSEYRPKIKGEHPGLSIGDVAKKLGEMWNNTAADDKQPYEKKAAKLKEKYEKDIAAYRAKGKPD

T3: 106-123 (also: biotinylated, site not given here)
T3 construct: Bar group label on the sheet
T3 peptide: CSEYRPKIKGEHPGLSIG

T4: native nuclear HMG1 prepared from 293H cells by freeze thaw (human, UniProt P09429 1-215)
T4 construct: unpurified cell lysate supernatant
T4 sequence (looked up): T1 sequence

T5: HMGB1 peptide 166-183 (UniProt P09429 166-183, also: biotinylated, site not given here)
T5 peptide (looked up): GKPDAAKKGVVKAEKSKK

B1: anti-HMG1 antibody G4 (antibody, V domains shown)
VH: EVQLLESGGGLVQPGGSLRLSCAASGFTFSWYDMTWVRQAPGKGLEWVSSISPSGGYTKYADSVKGRFTISRDNSKNTLYLQMNSLRAEDTAVYYCTTEFYDYLDVWGKGTTVTVSS
VL: DIQMTQSPGTLSLSPGEGATLSCRASQSVSSTYLAWYQQKPGQAPRLLIYEASKRATGTPARFSGSGSGTDFTLSISSLEPEDFAVYYCQHRHNWPPQWTFGQGTKVEVK
notes: also called ATCC PTA-6258
B2: anti-HMG1 antibody S2 (antibody, V domains shown)
VH: EVQLLESGGGLVQPGGSLRLSCAASGFTFSGYMMVWVRQAPGKGLEWVSRISPSGGQTGYADSVKGRFTISRDNSKNTLYLQMNSLRAEDTAVYYCAREEGGSYGAFDIWGQGTMVTVSS
VL: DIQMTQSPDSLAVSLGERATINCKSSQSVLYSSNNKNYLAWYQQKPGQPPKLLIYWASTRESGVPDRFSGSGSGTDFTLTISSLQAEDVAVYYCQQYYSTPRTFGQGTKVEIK
notes: also called ATCC PTA-6142
B3: anti-HMG1 antibody S16 (antibody, V domains shown)
VH: EVQLLESGGGLVQPGGSLRLSCAASGFTFSWYSMLWVRQAPGKGLEWVSYISPSGGFTNYADSVKGRFTISRDNSKNTLYLQMNSLRAEDTAVYYCARWDYNSGWYYDHWGQGTLVTVSS
VL: DIQMTQSPDTLSLSPGERATLSCRASQSVNSRNLAWYQQKPGQAPRLLIYGASTRATGIPDRFSGSVSGTEFTLTISSLQPDDFATYYCQQYNSYFTFGQGTKLEIK
notes: also called ATCC PTA-6259
B4: anti-HMG1 antibody S6 (antibody, V domains shown)
VH: EVQLLESGGGLVQPGGSLRLSCAASGFTFSWYDMSWVRQAPGKGLEWVSRISPSGGYTMYADSVKGRFTISRDNSKNTLYLQMNSLRAEDTAVYYCARLEVGATSGGTAFDIWGQGTMVTVSS
VL: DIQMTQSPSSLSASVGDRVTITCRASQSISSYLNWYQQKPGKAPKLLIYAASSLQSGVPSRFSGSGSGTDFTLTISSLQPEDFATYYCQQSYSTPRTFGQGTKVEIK
notes: also called ATCC PTA-6143

Key:
[1] = target: T1, recombinant HMG1 purified from E. coli …; test: BIAcore, mAb immobilized, HMG1 injected, steady-state model
Outline: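 Each mAb amine-coupled to a CM5 chip beside a reference flow cell. Twofold serial dilutions of recombinant HMG1 were injected at slow flow, and surfaces regenerated with 1M NaCl-50 mM NaOH. Affinity was derived from binding curves fitted to a steady-state model.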

[2] = target: T2, HMG1 B Box peptide amino acids 91-169; test: ELISA, wells coated with HMG1 B Box peptide 91-169 at 10 ug/ml, anti-human IgG-HRP, OD 450
Description: (§1) The plate was then blocked with 4% milk powder dissolved in PBS at 37° C. for 1 hour. The blocking solution was removed and replaced with human anti-HMG1 antibodies at various concentrations (see FIGS. 5A-B). […] HRP activity was detected with Sureblue HRP substrate (KPL). Plates were read at 450 nm using a Kinetic Microplate Reader (Molecular Devices). […] After washing and blocking with 1% BSA in PBS, the biotinylated peptides were individually added into the avidin coated wells and incubated for 30 min at room temperature. The serial diluted antibody G4, S16 and S6 at the initial concentration at 10 μg/ml were then transferred into the wells followed by adding mouse anti human IgG-HRP conjugate (Pierce). Detection was accomplished by adding 50 μl of tetramethylbenzidine (TMB) substrate (KPL) and the absorbance was read at […].

[3] = target: T3, 106-123; test: ELISA on biotinylated HMGB1 peptides captured on NeutrAvidin, antibody in serial dilution from 10 ug/ml, anti-human IgG-HRP, OD 450
Description: as §1

[4] = target: T2, HMG1 B Box peptide amino acids 91-169; test: ELISA, wells coated with HMG1 B Box peptide 91-169 at 10 ug/ml
Outline: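 Biotinylated peptides captured on avidin-coated wells (1% BSA block, 30 min, room temperature), then antibodies added in serial dilution from 10 μg/ml; for the coated-peptide format, plates blocked with 4% milk/PBS 1 h at 37 °C. Bound antibody detected with anti-human IgG-HRP and TMB, absorbance at 450 nm.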

[5] = target: T1, recombinant HMG1 purified from E. coli …; test: sandwich ELISA: antibody captured on anti-human IgG Fc, rHMG1 2 ug/ml in solution, mouse anti-HMGB1 and anti-mouse IgG-HRP, OD 450
Description: (§2) Sandwich ELISA (soluble HMG1): Immunoplates (EIA/RIA plate, High binding, Costar) were coated with anti human IgG Fc at 10 μg/ml in PBS (pH 7.2) and incubated at 4° C. overnight. The coating reagent was removed and the plates were rinsed briefly with PBS. The plates were then blocked with 4% milk for 1 hour at 37° C. and rinsed with PBS. The anti-HMG1 antibodies were diluted in 4% milk. For serial dilutions, the antibodies were used at a starting concentration of 20 μg/ml. The diluted anti-HMG1 antibodies were then added into plate and incubated for 1 hr at 37° C. The plate was then washed 10 times with PBST (PBS/0.1% tween 20) and incubate with antigen (HMGB1, 2 μg/ml; or 0.7 μg/ml for native HMGB1) in 4% milk and incubated at 37° C. for 1 h. The plate was then wash 10 times and incubated with mouse anti-HMGB1, 1 μg/ml in 4% milk at 37° C. for 1 h. The plate was washed 10 times and incubated with anti-mouse IgG-HRP at 1:1000 at 37° C. for 1 h. The plate was then washed and developed. HRP activity was detected with Sureblue HRP substrate (KPL). Plates were read at 450 nm using a Kinetic Microplate Reader (Molecular Devices).

[6] = target: T4, native nuclear HMG1 prepared from 293H …; test: sandwich ELISA: antibody captured on anti-human IgG Fc, native HMGB1 0.7 ug/ml in solution, mouse anti-HMGB1 and anti-mouse IgG-HRP, OD 450
Description: as §2

[7] = target: T5, HMGB1 peptide 166-183; test: ELISA on biotinylated HMGB1 peptides captured on NeutrAvidin, antibody in serial dilution from 10 ug/ml, anti-human IgG-HRP, OD 450
Description: as §1

Row | Binder | Kd [1] [µM] | binding result [2] | binding result [3] | binding result [4] | EC50 (read off the curve) [5] [mg/L] | EC50 (read off the curve) [6] [mg/L] | binding result [7]
1 | B1 | 0.03 | binds | binds |  |  |  | 
2 | B2 | 0.036 |  |  | no binding (tested: 10 ug/ml (log 1.00)) | ~0.08 | ~0.8 | 
3 | B3 | 0.023 | binds |  |  | ~0.08 |  | binds
4 | B4 | 0.039 |  |  | no binding (tested: 10 ug/ml (log 1.00)) |  |  | 
